Experimental data published in the supplement of paper PMC10567573.

B1: ZNF449 (parent)
chain: QLTGHQRIHSGEEPHKCPECGKRF
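Also: lentivirally expressed fusions sorted by FACS into six bins by GFP to DsRed ratio, PSI derived from sequencing read proportions per bin multiplied by bin number.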

Variants of: B1
Experiment: protein stability index of a GFP-peptide fusion (GPS, HEK-293T) (PSI 1-6); higher = more stable
Details: c terminus: a fixed tail appended
Work on QLTGHQRIHSGEEPHKCPEPGKRF yielded a protein stability index of 4.61.
Work on QLTGHQRIHSGEEPHKCPEVGKRF yielded a protein stability index of 3.71.
With QLTGHQRIHSGEEPHKCPEIGKRF the protein stability index was 4.36.
For QLTGHQRIHSGEEPHKCPEGGKRF, the protein stability index was 4.49.
In the case of QLTGHQRIHSGEEPHKCPETGKRF, the protein stability index is reported as 4.87.
With QLTGHQRIHSGEEPHKCPERGKRF the protein stability index was 5.4.
QLTGHQRIHSGEEPHKCPEWGKRF showed a protein stability index of 4.34.
Variant QLTGHQRIHSGEEPHKCPEMGKRF has a protein stability index of 3.82.
QLTGHQRIHSGEEPHKCPEFGKRF gave a protein stability index of 4.39.
With QLTGHQRIHSGEEPHKCPEAGKRF the protein stability index was 4.35.
QLTGHQRIHSGEEPHKCPEKGKRF showed a protein stability index of 4.99.
For QLTGHQRIHSGEEPHKCPEYGKRF, the protein stability index was 4.67.
Work on QLTGHQRIHSGEEPHKCPEHGKRF yielded a protein stability index of 4.46.
Work on QLTGHQRIHSGEEPHKCPELGKRF yielded a protein stability index of 4.05.
QLTGHQRIHSGEEPHKCPENGKRF gave a protein stability index of 4.49.
For QLTGHQRIHSGEEPHKCPESGKRF, the protein stability index was 4.37.
With QLTGHQRIHSGEAPHKCPECGKRF the protein stability index was 4.21.
For QLTGHQRIHSGEDPHKCPECGKRF, the protein stability index was 4.46.
Variant QLTGHQRIHSGEHPHKCPECGKRF has a protein stability index of 3.62.
Work on QLTGHQRIHSGENPHKCPECGKRF yielded a protein stability index of 3.42.
QLTGHQRIHSGEMPHKCPECGKRF gave a protein stability index of 3.57.
Variant QLTGHQRIHSGEKPHKCPECGKRF has a protein stability index of 4.59.
For QLTGHQRIHSGECPHKCPECGKRF, the protein stability index was 4.11.
Work on QLTGHQRIHSGEWPHKCPECGKRF yielded a protein stability index of 3.57.
In the case of QLTGHQRIHSGERPHKCPECGKRF, the protein stability index is reported as 3.54.
For QLTGHQRIHSGEIPHKCPECGKRF, the protein stability index was 3.97.
With QLTGHQRIHSGELPHKCPECGKRF the protein stability index was 2.85.
In the case of QLTGHQRIHSGEYPHKCPECGKRF, the protein stability index is reported as 3.15.
QLTGHQRIHSGEVPHKCPECGKRF gave a protein stability index of 3.33.
Variant QLTGHQRIHSGEGPHKCPECGKRF has a protein stability index of 4.09.
For QLTGHQRIHSGEPPHKCPECGKRF, the protein stability index was 4.1.
Variant QLTGHQRIHSGETPHKCPECGKRF has a protein stability index of 3.39.
For QLTGHQRIHSGEFPHKCPECGKRF, the protein stability index was 3.09.
Variant QLTGHQRIHSGEQPHKCPECGKRF has a protein stability index of 3.63.
QLTGHQRIHSPEEPHKCPECGKRF gave a protein stability index of 4.25.
In the case of QLTGHQRIHSNEEPHKCPECGKRF, the protein stability index is reported as 3.86.
With QLTGHQRIHSFEEPHKCPECGKRF the protein stability index was 3.77.
QLTGHQRIHSDEEPHKCPECGKRF gave a protein stability index of 4.5.
With QLTGHQRIHSLEEPHKCPECGKRF the protein stability index was 3.87.
Variant QLTGHQRIHSWEEPHKCPECGKRF has a protein stability index of 3.76.
QLTGHQRIHSTEEPHKCPECGKRF showed a protein stability index of 3.96.
QLTGHQRIHSKEEPHKCPECGKRF showed a protein stability index of 4.09.
Variant QLTGHQRIHSVEEPHKCPECGKRF has a protein stability index of 3.64.
Variant QLTGHQRIHSIEEPHKCPECGKRF has a protein stability index of 3.52.
For QLTGHQRIHSEEEPHKCPECGKRF, the protein stability index was 4.75.
QLTGHQRIHSYEEPHKCPECGKRF gave a protein stability index of 3.87.
With QLTGHQRIHSHEEPHKCPECGKRF the protein stability index was 4.23.
Variant QLTGHQRIHSREEPHKCPECGKRF has a protein stability index of 4.14.
In the case of QLTGHQRIHSSEEPHKCPECGKRF, the protein stability index is reported as 4.17.
With QLTGHQRIHSMEEPHKCPECGKRF the protein stability index was 3.21.
Variant QLTGHQRIHSQEEPHKCPECGKRF has a protein stability index of 4.01.
In the case of QLTGHQRIHSGEEPHKCPECCKRF, the protein stability index is reported as 3.77.
QLTGHQRIHSGEEPHKCPECAKRF gave a protein stability index of 4.21.
For QLTGHQRIHSGEEPHKCPECHKRF, the protein stability index was 4.08.
Variant QLTGHQRIHSGEEPHKCPECEKRF has a protein stability index of 4.87.
In the case of QLTGHQRIHSGEEPHKCPECFKRF, the protein stability index is reported as 4.19.
For QLTGHQRIHSGEEPHKCPECDKRF, the protein stability index was 4.36.
QLTGHQRIHSGHEPHKCPECGKRF showed a protein stability index of 4.05.
QLTGHQRIHSGLEPHKCPECGKRF showed a protein stability index of 4.05.
QLTGHQRIHSGQEPHKCPECGKRF showed a protein stability index of 3.29.
Variant QLTGHQRIHSGGEPHKCPECGKRF has a protein stability index of 3.99.
For QLTGHQRIHSGFEPHKCPECGKRF, the protein stability index was 2.54.
QLTGHQRIHSGVEPHKCPECGKRF showed a protein stability index of 4.17.
In the case of QLTGHQRIHSGTEPHKCPECGKRF, the protein stability index is reported as 3.43.
Variant QLTGHQRIHSGIEPHKCPECGKRF has a protein stability index of 3.63.
Work on QLTGHQRIHSGMEPHKCPECGKRF yielded a protein stability index of 3.73.
In the case of QLTGHQRIHSGAEPHKCPECGKRF, the protein stability index is reported as 5.14.
For QLTGHQRIHSGCEPHKCPECGKRF, the protein stability index was 3.35.
QLTGHQRIHSGYEPHKCPECGKRF gave a protein stability index of 3.41.
Variant QLTGHQRIHSGSEPHKCPECGKRF has a protein stability index of 3.96.
Variant QLTGHQRIHSGDEPHKCPECGKRF has a protein stability index of 4.15.
For QLTGHQRIHSGNEPHKCPECGKRF, the protein stability index was 4.21.
Variant QLTGHQRIHSGWEPHKCPECGKRF has a protein stability index of 3.99.
With QLTGHQRIHSGPEPHKCPECGKRF the protein stability index was 3.48.
Variant QLTGHQRIHSGKEPHKCPECGKRF has a protein stability index of 3.43.
Work on QLTGHQRIHSGREPHKCPECGKRF yielded a protein stability index of 4.01.
For QLTGHQRIHSGEEPHKCPDCGKRF, the protein stability index was 3.4.
With QLTGHQRIHSGEEPHKCPYCGKRF the protein stability index was 3.95.
In the case of QLTGHQRIHSGEEPHKCPCCGKRF, the protein stability index is reported as 2.
Work on QLTGHQRIHSGEEPHKCPRCGKRF yielded a protein stability index of 3.15.
In the case of QLTGHQRIHSGEEPHKCPHCGKRF, the protein stability index is reported as 4.12.
Work on QLTGHQRIHSGEEPHKCPFCGKRF yielded a protein stability index of 3.69.
Variant QLTGHQRIHSGEEPHKCPICGKRF has a protein stability index of 3.37.
Variant QLTGHQRIHSGEEPHKCPTCGKRF has a protein stability index of 4.03.
With QLTGHQRIHSGEEPHKCPWCGKRF the protein stability index was 3.61.
QLTGHQRIHSGEEPHKCPGCGKRF gave a protein stability index of 3.09.
In the case of QLTGHQRIHSGEEPHKCPQCGKRF, the protein stability index is reported as 3.23.
Variant QLTGHQRIHSGEEPHKCPNCGKRF has a protein stability index of 4.01.
QLTGHQRIHSGEEPHKCPKCGKRF gave a protein stability index of 3.33.
QLTGHQRIHSGEEPHKCPSCGKRF showed a protein stability index of 3.62.
QLTGHQRIHSGEEPHKCPLCGKRF showed a protein stability index of 3.16.
Work on QLTGHQRIHSGEEPHKCPVCGKRF yielded a protein stability index of 4.53.
Variant QLTGHQRIHSGEEPHKCPMCGKRF has a protein stability index of 4.05.
With QLTGHQRIHSGEEPHKCPPCGKRF the protein stability index was 4.23.
